In publication PMC6220978, “Induced conformational changes activate the peptidoglycan synthase PBP1B” (Molecular Microbiology, 2018):

Legend:
Test in all cases: SPR; PBP1B versions immobilised to the chip surface; CpoB versions injected from either 3.9 nM to 2 μM or from 78 nM to 40 μM; apparent KD by non-linear regression, at least three independent experiments
Conditions in all cases: both partners purified
[1] = target: T1, PBP1B (wild type, PBP1B^46-844) (E. coli, UniProt P02919 46-844)
T1 construct: PBP1B, E. coli, residues 46-844, encoded on pDML924; Immobilised on the SPR chip as in Egan et al. 2014 / Gray et al. 2015; also called WT PBP1B; WT; source: E. coli BL21(DE3), purified (membrane extract, HisTrap, thrombin, HiTrap SP ion exchange)
T1 sequence (looked up): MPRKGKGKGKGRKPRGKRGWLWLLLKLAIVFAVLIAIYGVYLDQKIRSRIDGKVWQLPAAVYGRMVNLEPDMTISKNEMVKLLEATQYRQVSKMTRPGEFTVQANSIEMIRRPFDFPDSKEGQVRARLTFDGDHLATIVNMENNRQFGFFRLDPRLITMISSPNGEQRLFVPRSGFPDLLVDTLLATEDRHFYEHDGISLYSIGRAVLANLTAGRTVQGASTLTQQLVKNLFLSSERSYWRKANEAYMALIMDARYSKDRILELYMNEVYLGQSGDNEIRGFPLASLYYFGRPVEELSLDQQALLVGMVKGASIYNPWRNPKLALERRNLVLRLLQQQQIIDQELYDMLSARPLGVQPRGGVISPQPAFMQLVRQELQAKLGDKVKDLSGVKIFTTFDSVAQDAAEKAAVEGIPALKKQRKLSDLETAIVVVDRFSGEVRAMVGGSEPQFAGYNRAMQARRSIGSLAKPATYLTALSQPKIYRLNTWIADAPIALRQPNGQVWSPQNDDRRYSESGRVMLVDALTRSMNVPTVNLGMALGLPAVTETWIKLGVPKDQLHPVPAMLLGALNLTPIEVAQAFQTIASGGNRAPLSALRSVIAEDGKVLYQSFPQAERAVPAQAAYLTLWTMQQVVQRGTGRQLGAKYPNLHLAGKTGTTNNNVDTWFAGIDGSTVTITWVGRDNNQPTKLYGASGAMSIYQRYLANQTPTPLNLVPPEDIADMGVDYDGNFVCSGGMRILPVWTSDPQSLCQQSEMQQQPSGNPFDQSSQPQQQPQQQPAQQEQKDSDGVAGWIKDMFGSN

[2] = target: T2, PBP1B R109G (E. coli, UniProt P02919 46-844, R109G)
T2 construct: PBP1B, E. coli, residues 46-844, made by mutagenesis of pDML924; source: E. coli BL21(DE3), purified (membrane extract, HisTrap, thrombin, HiTrap SP ion exchange)
T2 sequence (looked up): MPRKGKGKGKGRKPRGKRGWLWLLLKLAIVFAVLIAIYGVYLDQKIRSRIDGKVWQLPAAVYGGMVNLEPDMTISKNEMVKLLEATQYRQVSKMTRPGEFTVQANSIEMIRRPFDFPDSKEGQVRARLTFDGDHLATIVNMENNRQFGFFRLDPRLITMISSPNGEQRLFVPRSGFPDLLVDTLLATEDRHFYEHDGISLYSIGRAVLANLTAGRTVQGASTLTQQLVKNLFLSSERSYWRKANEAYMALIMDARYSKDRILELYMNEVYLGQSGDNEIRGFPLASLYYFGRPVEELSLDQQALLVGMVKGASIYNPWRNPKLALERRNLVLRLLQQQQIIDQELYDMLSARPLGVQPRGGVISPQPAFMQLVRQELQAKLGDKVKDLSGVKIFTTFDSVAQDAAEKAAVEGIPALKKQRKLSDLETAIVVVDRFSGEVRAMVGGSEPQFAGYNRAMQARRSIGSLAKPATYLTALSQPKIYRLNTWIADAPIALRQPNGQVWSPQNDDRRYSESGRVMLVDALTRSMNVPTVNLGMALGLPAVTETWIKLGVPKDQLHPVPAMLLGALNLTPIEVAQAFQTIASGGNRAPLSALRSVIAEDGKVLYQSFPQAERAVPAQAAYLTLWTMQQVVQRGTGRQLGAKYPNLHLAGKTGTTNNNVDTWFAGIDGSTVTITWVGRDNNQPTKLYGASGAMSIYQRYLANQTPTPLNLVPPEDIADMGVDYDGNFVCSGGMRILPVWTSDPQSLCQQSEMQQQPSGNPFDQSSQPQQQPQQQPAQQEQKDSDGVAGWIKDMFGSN

[3] = target: T3, PBP1B E341A (E. coli, UniProt P02919 46-844, E341A)
T3 construct: PBP1B, E. coli, residues 46-844, made by mutagenesis of pDML924; source: E. coli BL21(DE3), purified (membrane extract, HisTrap, thrombin, HiTrap SP ion exchange)
T3 sequence (looked up): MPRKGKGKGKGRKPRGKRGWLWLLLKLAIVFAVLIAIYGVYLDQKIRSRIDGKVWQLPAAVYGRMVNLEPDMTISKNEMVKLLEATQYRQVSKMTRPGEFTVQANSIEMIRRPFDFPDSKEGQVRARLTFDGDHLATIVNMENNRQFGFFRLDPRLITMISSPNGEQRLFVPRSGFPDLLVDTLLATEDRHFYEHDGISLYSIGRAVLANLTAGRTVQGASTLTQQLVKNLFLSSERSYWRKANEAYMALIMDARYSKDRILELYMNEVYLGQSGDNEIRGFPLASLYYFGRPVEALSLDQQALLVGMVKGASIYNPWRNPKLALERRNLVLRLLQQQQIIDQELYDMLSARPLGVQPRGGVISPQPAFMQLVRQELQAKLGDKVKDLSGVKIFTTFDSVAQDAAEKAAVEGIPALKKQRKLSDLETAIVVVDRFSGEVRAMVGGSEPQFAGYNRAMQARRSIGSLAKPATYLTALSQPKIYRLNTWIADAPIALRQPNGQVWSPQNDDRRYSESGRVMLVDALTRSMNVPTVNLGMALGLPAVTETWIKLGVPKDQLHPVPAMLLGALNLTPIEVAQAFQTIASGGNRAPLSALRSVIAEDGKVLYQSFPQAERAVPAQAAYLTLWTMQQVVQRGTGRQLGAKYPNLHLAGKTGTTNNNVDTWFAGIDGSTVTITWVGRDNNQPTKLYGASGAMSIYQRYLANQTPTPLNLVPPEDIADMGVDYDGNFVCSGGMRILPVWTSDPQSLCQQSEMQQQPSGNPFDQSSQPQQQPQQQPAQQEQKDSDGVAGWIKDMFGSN

B1: CpoB (full length) (natural protein, E. coli, UniProt P45955 27-263, looked up)
chain: QAPISSVGSGSVEDRVTQLERISNAHSQLLTQLQQQLSDNQSDIDSLRGQIQENQYQLNQVVERQKQILLQIDSLSSGGAAAQSTSGDQSGAAASTTPTADAGTANAGAPVKSGNANTDYNAAIALVQDKSRQDDAMVAFQNFIKNYPDSTYLPNANYWLGQLNYNKGKKDDAAYYFASVVKNYPKSPKAADAMFKVGVIMQDKGDTAKAKAVYQQVISKYPGTDGAKQAQKRLNAM
notes: CpoB, E. coli; The coiled-coil construct begins at residue 27, so the purified 'full length' protein may lack the signal peptide (surmise); source: E. coli BL21(DE3), purified (HisTrap, Superdex 200), as in Gray et al. 2015
Kd [1]: 0.094 µM
Kd [2]: 0.07 µM
Kd [3]: 0.077 µM
